Assay results as given in patent US20070077617.

Molecular target: fusion protein PRV
Sequence (chain, as listed by the source): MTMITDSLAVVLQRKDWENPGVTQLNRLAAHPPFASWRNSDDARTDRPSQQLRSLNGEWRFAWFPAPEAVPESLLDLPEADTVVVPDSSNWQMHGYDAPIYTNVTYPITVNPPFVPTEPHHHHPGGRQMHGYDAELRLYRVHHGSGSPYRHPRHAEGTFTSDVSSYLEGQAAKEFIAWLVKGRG

B1: OmpT protease variant OmpT D97R (protein)
chain: STETLSFTPDNINADISLGTLSGKTKERVYLAEEGGRKVSQLDWKFNNAAIIKGAINWDLMPQISIGAAGWTTLGSRGGNMVDQDWMDSSNPGTWTRESRHPDTQLNYANEFDLNIKGWLLNEPNYRLGLMAGYQESRYSFTARGGSYIYSSEEGFRDDIGSFPNGERAIGYKQRFKMPYIGLTGSYRYEDFELGGTFKYSGWVESSDNDEHYDPGKRITYRSKVKDQNYYSVAVNAGYYVTPNAKVYVEGAWNRVTNKKGNTSLYDHNNNTSDYSKNGAGIENYNFITTAGLKYTF
B1 was tested, and the relative cleavage efficiency was “less than 3.0%”.
